# Experimental data from patent publication US20230302124.
# T1: simplified alpha-carboxysome shell of CsoS1A and CsoS4A-SII
# T1 chain 1: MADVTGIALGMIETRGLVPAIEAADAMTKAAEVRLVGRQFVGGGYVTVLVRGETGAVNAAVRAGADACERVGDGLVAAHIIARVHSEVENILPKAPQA
# T1 chain 2: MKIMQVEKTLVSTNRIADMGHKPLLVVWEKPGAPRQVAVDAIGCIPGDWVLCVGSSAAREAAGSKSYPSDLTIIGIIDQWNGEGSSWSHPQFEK
# B1: His6-APEX2-S2CP(30) (protein)
# chain: HHHHHHMGSSHHHHHHSSGMGKSYPTVSADYQDAVEKAKKKLRGFIAEKRCAPLMLRLAFHSAGTFDKGTKTGGPFGTIKHPAELAHSANNGLDIAVRLLEPLKAEFPILSYADFYQLAGVVAVEVTGGPKVPFHPGREDKPEPPPEGRLPDPTKGSDHLRDVFGKAMGLTDQDIVALSGGHTIGAAHKERSGFEGPWTSNPLIFDNSYFTELLSGEKEGLLQLPSDKALLSDPVFRPLVDKYAADEDAFFADYAEAHQKLSELGFADAGSSKPEKPGSKITGSSGNDTQGSLITYSGGARG
# Biological target: T1, simplified alpha-carboxysome shell of …
protein,measurement,value
B1,Average enzyme copy number per shell (T = 3) (copies per shell),11
same,Average enzyme copy number per shell (T = 4) (copies per shell),14.6
